Measurements published in patent US20220204629A1 (NEW YORK UNIVERSITY, published 2022).

B1: G9.2-17 human IgG4 (antibody, V domains shown)
VH: EVQLVESGGGLVQPGGSLRLSCAASGFTVSSSSIHWVRQAPGKGLEWVAYISSSSGYTYYADSVKGRFTISADTSKNTAYLQMNSLRAEDTAVYYCARYWSYPSWWPYRGMDYWGQGTLVTVSS
VL: DIQMTQSPSSLSASVGDRVTITCRASQSVSSAVAWYQQKPGKAPKLLIYSASSLYSGVPSRFSGSRSGTDFTLTISSLQPEDFATYYCQQSSTDPITFGQGTKVEIKR
notes: also called G9.2-17 hIgG4; G9.2-17 IgG4
B2: G9.2-17 mIgG1 (antibody, V domains shown)
VH: B1 VH
VL: B1 VL
notes: also called mouse IgG1 version of G9.2-17; mIgG1 G9.2-17
B3: G9.1-8m13 Fab (Fab, V domains shown)
VH: EVQLVESGGGLVQPGGSLRLSCAASGFTVSSSSIHWVRQAPGKGLEWVAYIYPYSSSSSYADSVKGRFTISADTSKNTAYLQMNSLRAEDTAVYYCARYSTYSSKWVWGMDYWGQGTLVTVSS
VL: DIQMTQSPSSLSASVGDRVTITCRASQSVSSAVAWYQQKPGKAPKLLIYSASSLYSGVPSRFSGSRSGTDFTLTISSLQPEDFATYYCQQSYYDSNPITFGQGTKVEIKR
notes: Fab purified from E. coli; also called purified G9.1-8m13 Fab; 9.1-8mut13
B4: G9.1-8m13 mIgG2a (antibody, V domains shown)
VH: B3 VH
VL: B3 VL
notes: also called purified G9.1-8m13 mIgG2a molecule

Assays:
[1] = molecular target: T1, rat galectin-9 CRD2 (rat, UniProt P97840 226-354, limits assumed); assay: bead based binding, rat CRD2
T1 construct: domain: CRD2; Only two short stretches of the rat protein are given; also called CRD2 domain of rat galectin-9; rat gal-9 CRD2

[2] = molecular target: T2, human Galectin-9 CRD2 (residues 218-355) (human, UniProt O00182 218-355, biotinylated in vitro with BirA at the Avitag (where immobilised)); assay: bead based binding, human CRD2
T2 construct: also called human gal-9 CRD2; wild-type Galectin-9 CRD2; not shown: N-terminal hexahistidine tag, Avitag and TEV cleavage site of the pHBT vector

[3] = molecular target: T2, human Galectin-9 CRD2 (residues 218-355); assay: biolayer interferometry, G9.2-17 captured on anti-Fab probes, human gal-9 CRD2 in solution, global fit
Procedure: (§1) FIGS. 16A-16D include graphs showing biolayer interferometry analysis to measure binding affinity to human (FIG. 16A), mouse (FIG. 16B), primate (FIG. 16C) or rat (FIG. 16D) gal-9 CRD2. G9.2-17 was captured onto anti-Fab probes and incubated either recombinant human, mouse, primate or rat gal-9 CRD2. Global fit, shown in black line, was used to calculate the dissociation constants. Representative data from triplicate runs shown.

[4] = molecular target: T2, human Galectin-9 CRD2 (residues 218-355); assay: ELISA, antibody titrated over immobilized human CRD2
[5] = molecular target: human Galectin-9 CRD2 W277A mutant (human, UniProt O00182 218-355, immobilised on streptavidin coated beads (biotinylated)); assay: mutant on streptavidin beads, G9.2-17 titrated
Procedure: (§2) FIG. 17 depicts a bar graph showing the results of epitope mapping studies of gal-9 CRD2 using alanine scanning to characterize G9.2-17 binding. Galectin-9 CRD2 mutants were generated using site-directed mutagenesis. Mutants were immobilized onto streptavidin coated beads and G9.2-17 was titrated to generate a saturation curve. KD values were calculated by fitting curves to Michaelis Menton kinetics. ΔΔG values of binding for each mutant versus wild-type galectin shown. Arrows indicate values that are outside the limit of detection for the assay. Higher ΔΔG values represent greater contribution to G9.2-17 epitope. Mutations were mapped onto the surface of gal CRD2 crystal structure (PDB 3nv4).
(§3) To determine the epitope of G9.2-17 on galectin-9 CRD2, we first mutated residues in several positions throughout CRD2 including R239, which is crucial for carbohydrate binding (Zhu et al., 2005). Only one mutation, W277K, decreased G9.2-17 binding. […] To further map the binding patch of G9.2-17, residues that are spatially adjacent to W277 were mutated to alanine and their binding was assessed. W277A and L279A result in complete abrogation of G9.2-17 binding in our assay. […] These residues are located adjacent in space in the beta-sheet, and form a patch on the back side of CRD2 relative to its carbohydrate recognition site.

[6] = molecular target: human Galectin-9 CRD2 L279A mutant (human, UniProt O00182 218-355, immobilised on streptavidin coated beads (biotinylated)); assay: mutant on streptavidin beads, G9.2-17 titrated
Procedure: as §2, §3

[7] = molecular target: T3, cynomolgus monkey galectin-9 CRD2 (cynomolgus monkey, UniProt A0A7N9IHL9 218-355); assay: biolayer interferometry, G9.2-17 captured on anti-Fab probes, primate gal-9 CRD2 in solution, global fit
T3 construct: domain: CRD2; Only two short stretches of a macaque protein are given; also called CRD2 domain of cynomolgus galectin-9; primate gal-9 CRD2
Procedure: as §1

[8] = molecular target: T4, human Galectin-9 CRD1 (residues 1-148) (human, UniProt O00182 1-148, biotinylated in vitro with BirA at the Avitag); assay: bead assay, flow cytometry: biotinylated Galectin-9 CRD1 on streptavidin beads, G9.2-17 human IgG4 titrated
T4 construct: also called CRD1 domain of galectin-9; not shown: Avitag left upstream after thrombin cleavage of the GST fusion (pGEX)
Source text: For further characterization, one clone, […] (a human IgG4 molecule) was screened for CRD specificity. Biotinylated Galectin-9 CRD1 or CRD2 was immobilized onto streptavidin-coated magnetic beads. The beads were blocked with excess biotin, followed by titration of the G9.2-17 human IgG4 antibody. The beads were then stained and quantified via flow cytometry.

[9] = molecular target: T3, cynomolgus monkey galectin-9 CRD2; assay: bead based binding, cynomolgus CRD2
[10] = molecular target: T1, rat galectin-9 CRD2; assay: biolayer interferometry, G9.2-17 captured on anti-Fab probes, rat gal-9 CRD2 in solution, global fit
Procedure: as §1

[11] = molecular target: T4, human Galectin-9 CRD1 (residues 1-148); assay: bead based binding
[12] = molecular target: T4, human Galectin-9 CRD1 (residues 1-148); assay: bead-based binding assay
Procedure: The affinities of the antibodies were assessed using a bead-based assay as previously described (Nishikori et al., J Mol Biol, 2012, 424, 391-399) and surface plasmon resonance (SPR). In the bead-based assay, a biotinylated protein (either a Galectin-9 sample or a Fab sample) was immobilized on streptavidin-coated Dynabeads M280 via the biotin-streptavidin interaction. After blocking the excess biotin-binding sites on the beads using unconjugated biotin, binding titration was performed by incubating the second component (i.e., Fab for immobilized Galectin-9 or vice versa), followed by quantification using a dye-labeled neutravidin (ThermoFisher) and flow cytometry analysis. In experiments where the second component is an IgG, a dye-labeled anti-human IgG or anti-mouse IgG antibody was used for detection.
The binding activity of clone G9.1-8m13 is evaluated using conventional methods.

T4 sequence (O00182 1-148): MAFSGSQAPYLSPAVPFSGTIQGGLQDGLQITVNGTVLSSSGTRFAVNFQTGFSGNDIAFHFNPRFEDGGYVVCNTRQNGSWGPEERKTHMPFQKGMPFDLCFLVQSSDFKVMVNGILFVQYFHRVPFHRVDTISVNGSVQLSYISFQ
T1 sequence (P97840 226-354 limits assumed): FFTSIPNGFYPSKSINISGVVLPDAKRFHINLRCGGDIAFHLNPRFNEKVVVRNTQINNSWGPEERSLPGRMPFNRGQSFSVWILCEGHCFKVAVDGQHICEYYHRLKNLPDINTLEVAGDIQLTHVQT
T2 sequence (O00182 218-355 limits assumed): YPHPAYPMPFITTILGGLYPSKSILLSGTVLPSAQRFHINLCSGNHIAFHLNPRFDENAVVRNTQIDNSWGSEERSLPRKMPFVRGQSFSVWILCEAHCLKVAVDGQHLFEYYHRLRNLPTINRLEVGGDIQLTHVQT
human Galectin-9 CRD2 L279A mutant, sequence (O00182 218-355 L311A): as the sequence (O00182 218-355 limits assumed) above, with L94A counted along it
human Galectin-9 CRD2 W277A mutant, sequence (O00182 218-355 W309A): as the sequence (O00182 218-355 limits assumed) above, with W92A counted along it

Row | Binder | Kd [1] [nM] | Kd [2] [nM] | Kd [3] [nM] | Kd [4] [nM] | binding result [5] | binding result [6] | Kd [7] [nM] | binding result [8] | Kd [9] [nM] | Kd [10] [nM] | binding result [11] | Kd [12] [nM]
1 | B1 | 0.31 | 0.15 | 0.183 | 0.42 | no binding | no binding | 0.615 | no binding (tested: 50 nM) | 0.31 | 2.71 | – | –
2 | B2 | 0.35 | 0.18 | – | 0.45 | – | – | – | – | 0.3 | – | no binding | –
3 | B3 | – | – | – | – | – | – | – | – | – | – | – | 20.7
4 | B4 | – | – | – | – | – | – | – | – | – | – | – | 0.3
